Results: patent US20220064644A1 (TAIPEI MEDICAL UNIVERSITY, published 2022)

T1: GST-Q43-HTTEX1, P42858
T1 chain: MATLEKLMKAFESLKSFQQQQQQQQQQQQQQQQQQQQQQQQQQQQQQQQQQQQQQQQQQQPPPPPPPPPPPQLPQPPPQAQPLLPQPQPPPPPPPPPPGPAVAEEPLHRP


Experiments:
[1] = biological target: ATXN3-28Q (normal ATXN3), P54252
GST-Q43-HTTEX1, P42858 = biological target: T1, GST-Q43-HTTEX1, P42858
[2] = biological target: ATXN3-84Q (mutant ATXN3), P54252
GST protein = biological target: T2, GST protein (UniProt P08515 1-218 = GST); assay: GST pull-down with purified recombinant proteins, Western blot
T2 construct: Negative control in the pull-down assays
Method: The indicated lysates (1 mg) were incubated with purified recombinant GST or GST-Q₂₅-HTTEX1 protein as indicated for 60 min at 4° C. to allow complex formation. GST served as a negative control. The protein complexes were analyzed by Western blotting. The amount of PIAS1-domain-deletion mutant was normalized to the corresponding bait (GST-Q₂₅-HTTEX1 protein). The data are presented as the mean±SEM (N=4). **p<0.001 and ****p<0.0001 by one-way ANOVA. (FIG. 12 (C)) Purified recombinant 6×His-S/T rich region only of PIAS1 was incubated with purified recombinant GST or GST-Q₂₅-HTTEX1 protein for 60 min at 4° C. GST served as a negative control. The protein complexes were analyzed by Western blotting. The red arrowhead and yellow arrowhead mark the GST-Q₂₅-HTTEX1 and GST proteins, respectively. The data shown here represent three independent experiments.
GST Pull-down Assay. Cell lysates were harvested using a nondenaturing lysis buffer (137 mM NaCl, 1% NP-40, 20 mM Tris pH 8.0, and 1 mM EDTA) containing a protease inhibitor cocktail and 1× phosphatase inhibitor cocktail (Roche) and subjected to rotation at 4° C. for 1 hr. […] The bound proteins were analyzed with SDS-PAGE and Western blotting. […]

T2 sequence (P08515 whole entry): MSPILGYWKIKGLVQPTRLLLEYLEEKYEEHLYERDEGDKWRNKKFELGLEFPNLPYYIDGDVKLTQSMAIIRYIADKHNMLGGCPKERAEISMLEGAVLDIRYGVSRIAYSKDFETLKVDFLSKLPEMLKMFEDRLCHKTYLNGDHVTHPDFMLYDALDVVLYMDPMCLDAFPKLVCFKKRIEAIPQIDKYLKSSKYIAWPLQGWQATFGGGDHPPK
Sequence of ATXN3-28Q (normal ATXN3), P54252 (P54252 whole entry, looked up, tested part not stated): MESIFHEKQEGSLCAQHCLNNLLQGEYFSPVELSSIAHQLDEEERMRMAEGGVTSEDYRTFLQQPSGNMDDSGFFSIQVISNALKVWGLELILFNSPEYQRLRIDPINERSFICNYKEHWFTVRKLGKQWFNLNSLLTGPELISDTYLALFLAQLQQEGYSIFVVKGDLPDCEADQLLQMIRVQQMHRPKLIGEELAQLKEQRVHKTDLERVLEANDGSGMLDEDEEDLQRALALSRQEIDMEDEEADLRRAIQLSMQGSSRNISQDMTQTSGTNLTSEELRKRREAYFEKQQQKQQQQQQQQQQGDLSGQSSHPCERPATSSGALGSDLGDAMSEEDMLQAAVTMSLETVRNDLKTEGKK
Sequence of ATXN3-84Q (mutant ATXN3), P54252 (P54252 whole entry, looked up, stated change not applied, tested part not stated): as the sequence (P54252 whole entry, looked up, tested part not stated) above

binding result (GST protein)	Binder	in vitro SUMOylation assay (SUMO3 conjugation of ATXN3) [1]	in vitro SUMOylation of GST-Q43-HTTEX1 (Western blot shift) (GST-Q43-HTTEX1, P42858)	in vitro SUMOylation assay (SUMO3 conjugation of ATXN3) [2]
–	wild-type PIAS1 (Homo sapiens protein inhibitor of activated STAT 1) (protein) MADSAELKQMVMSLRVSELQVLLGYAGRNKHGRKHELLTKALHLLKAGCSPAVQMKIKELYRRRFPQKIMTPADLSIPNVHSSPMPATLSPSTIPQLTYDGHPASSPLLPVSLLGPKHELELPHLTSALHPVHPDIKLQKLPFYDLLDELIKPTSLASDNSQRFRETCFAFALTPQQVQQISSSMDISGTKCDFTVQVQLRFCLSETSCPQEDHFPPNLCVKVNTKPCSLPGYLPPTKNGVEPKRPSRPINITSLVRLSTTVPNTIVVSWTAEIGRNYSMAVYLVKQLSSTVLLQRLRAKGIRNPDHSRALIKEKLTADPDSEIATTSLRVSLLCPLGKMRLTIPCRALTCSHLQCFDATLYIQMNEKKPTWVCPVCDKKAPYEHLIIDGLFMEILKYCTDCDEIQFKEDGTWAPMRSKKEVQEVSASYNGVDGCLSSTLEHQVASHHQSSNKNKKVEVIDLTIDSSSDEEEEEPSAKRTCPSLSPTSPLNNKGILSLPHQASPVSRTPSLPAVDTSYINTSLIQDYRHPFHMTPMPYDLQGLDFFPFLSGDNQHYNTSLLAAAAAAVSDDQDLLHSSRFFPYTSSQMFLDQLSAGGSTSLPTTNGSSSGSNSSLVSSNSLRESHSHTVTNRSSTDTASIFGIIPDIISLD	When PIAS1 and ATP (ATP is necessary for SUMOylation activation) participated the reaction process, formed ATXN3 SUMO conjugation (FIG. 6 (B)), both normal and mutant ATXN3	The addition of PIAS1^WT enhanced the SUMOylation of GST-Q43-HTTEX1	When PIAS1 and ATP (ATP is necessary for SUMOylation activation) participated the reaction process, formed ATXN3 SUMO conjugation (FIG. 6 (B)), both normal and mutant ATXN3
–	PIAS1 gene variant 3 (PIAS1^S510G) (protein) MADSAELKQMVMSLRVSELQVLLGYAGRNKHGRKHELLTKALHLLKAGCSPAVQMKIKELYRRRFPQKIMTPADLSIPNVHSSPMPATLSPSTIPQLTYDGHPASSPLLPVSLLGPKHELELPHLTSALHPVHPDIKLQKLPFYDLLDELIKPTSLASDNSQRFRETCFAFALTPQQVQQISSSMDISGTKCDFTVQVQLRFCLSETSCPQEDHFPPNLCVKVNTKPCSLPGYLPPTKNGVEPKRPSRPINITSLVRLSTTVPNTIVVSWTAEIGRNYSMAVYLVKQLSSTVLLQRLRAKGIRNPDHSRALIKEKLTADPDSEIATTSLRVSLLCPLGKMRLTIPCRALTCSHLQCFDATLYIQMNEKKPTWVCPVCDKKAPYEHLIIDGLFMEILKYCTDCDEIQFKEDGTWAPMRSKKEVQEVSASYNGVDGCLSSTLEHQVASHHQSSNKNKKVEVIDLTIDSSSDEEEEEPSAKRTCPSLSPTSPLNNKGILSLPHQASPVSRTPGLPAVDTSYINTSLIQDYRHPFHMTPMPYDLQGLDFFPFLSGDNQHYNTSLLAAAAAAVSDDQDLLHSSRFFPYTSSQMFLDQLSAGGSTSLPTTNGSSSGSNSSLVSSNSLRESHSHTVTNRSSTDTASIFGIIPDIISLD	–	Compared with PIAS1^WT, PIAS1^S510G induced a much lower level of SUMOylation of GST-Q43HTTEX1	–
no binding	6xHis-S/T rich region only of PIAS1 (other, human, UniProt O75925 480-651, looked up, domain: S/T rich region; Purified recombinant protein from BL21 cells; also called S/T only; S/T-only PIAS1; not shown: 6xHis tag from the pRSETA-6xHis vector) TCPSLSPTSPLNNKGILSLPHQASPVSRTPSLPAVDTSYINTSLIQDYRHPFHMTPMPYDLQGLDFFPFLSGDNQHYNTSLLAAAAAAVSDDQDLLHSSRFFPYTSSQMFLDQLSAGGSTSLPTTNGSSSGSNSSLVSSNSLRESHSHTVTNRSSTDTASIFGIIPDIISLD	–	–	–
